Assays:
[1] = molecular target: formate channel FocA from Vibrio cholerae (Vibrio cholerae); experiment: SEC-MALS
[2] = molecular target: formate channel FocA from Vibrio cholerae (Vibrio cholerae); experiment: crystal structure

Substance: formate channel FocA from Vibrio cholerae (natural protein)
- stoichiometry N [1]: 5
- stoichiometry N [2]: 5
